Consider 2 molecules from patent US20170212131A1 (NEW YORK UNIVERSITY, published 2017).

Assay [1] addresses T1, Tau-phospho-serine 396/404 peptide.
T1 construct: Synthetic 30-residue peptide (Keck Foundation, Yale University) used for panning, ELISA and Biacore
Kind of assay: ratio of SPR KD values.

Assay [2] has the same target. Briefly: ratio of association/dissociation from SPR.
For assay [3] the target is unchanged. Briefly: SPR (Biacore 2000), scFv immobilized, peptide as analyte. The protocol:
(§1) Briefly, scFv235/antibody (10 μg/ml) was diluted in 10 mM sodium acetate, pH 5.0, and was immobilized on a separate CMS sensor chip with an amine coupling kit (7 min contact time at 5 μl/min flow rate). Unreacted surface-bound material was blocked with ethanolamine. One channel of each sensor chip, prepared in the same way without scFv235 or antibody, was used to monitor the nonspecific binding of the peptide. All measurements were done with HBS-EP buffer (10 mM HEPES at pH 7.4, 150 mM NaCl, 3.4 mM EDTA and 0.005% surfactant P20) at flow rate of 5 μl/min at 25° C. After each measurement, the chip surface was regenerated with 10 μl of a buffer containing 500 mM NaCl and 0.1M glycine HCl, pH 8.0. […] Table 5 and Table 6 summarize the kinetics and specificity of binding of the 6B2G12 antibody and scFv235.
(SPR reads the build-up and loss of mass on a sensor chip optically.)

The target is the same in assay [4]. The description is as above. The protocol: as §1
This is another data set of the same source.

Assay [5] shares this target. Briefly: SPR (Biacore 2000), antibody immobilized, peptide as analyte. The protocol:
as §1

For assay [6] the target is unchanged. The assay is described as above. On the procedure:
as §1
This is another data set of the same source.

B1: scFv235 (scFv, not shown: small tags and cut ends)
scFv: ELDVVMTQTPLTLSVTIGQPASISCKSSQSLLYSNGKTYLNWLLQRPGQSPKRLIYLVSKLDSGVPDRFTGSGSGTDFTLKISRVEAEDLGVYYCVQGTHSPLTFGAGTKLELKSSGGGGSGGGGGGSSRSSLEVQLQQSGPELVKPGASVKISCKTSEYTFTEYTKHWVKQSHGKSLEWIGSINPNNGDTYYNQKFTDKATLTVDKSSTTASMELRSLTFEDSAVYYCAMGDSAWFAYWGQGTLVTVSA
notes: Made in E. coli from the phage display library of hybridoma 6B2G12; also called the scFv; His-tagged scFv235
Regarding B1, the “selectivity for the phosphorylated peptide (SEQ ID NO:28) relative to the non-phosphorylated peptide (SEQ ID NO:27)” value in assay [1] turned out to be 3900 fold. Moreover, in assay [2], the “fold lower affinity than antibody 6B2G12” value is ~2510 fold. Further, in assay [3], the Kd (in general, the concentration at which binding is half-saturated) came out at 1040 nM. Further, in assay [4], binding was put at a Kd of 994 nM; the koff (as a rule, the rate constant with which the complex falls apart) was 0.0039 s⁻¹; the kon – broadly, the rate constant with which the complex forms – was 3930 M⁻¹ s⁻¹.

B2: antibody 6B2G12 (antibody, V domains shown)
VH: EVQLQQSGPELVKPGASVKISCKTSEYTFTEYTKHWVKQSHGKSLEWIGSINPNNGDTYYNQKFTDKATLTVDKSSTTASMELRSLTFEDSAVYYCAMGDSAWFAYWGQGTLVTVS
VL: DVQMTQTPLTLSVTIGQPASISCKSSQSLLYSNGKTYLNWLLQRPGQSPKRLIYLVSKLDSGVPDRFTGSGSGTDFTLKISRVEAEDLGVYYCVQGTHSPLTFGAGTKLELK
notes: Monoclonal antibody from hybridoma clone 6B2G12, whole antibody (about 150 kDa); also called parent antibody; parental antibody
In assay [5], B2 showed a Kd of 0.395 nM. In assay [6], this molecule displayed a Kd of 0.395 nM, a koff of 0.00146 s⁻¹ and a kon of 3.69e+06 M⁻¹ s⁻¹.
